# Test results as given in PMC4820223.
# How the values were obtained:
# [1] = target: UbL-mCherry-FRB-MBP proteasome adaptor
# [2] = target: UbL-mCherry-GAI(1-92) proteasome adaptor (UniProt Q9LQT8)
"depletion of the GFP target (GFP fluorescence by flow cytometry) in HEK293 cells after 4 h with 1, 2 or 5 uM rapalog; dimerisation bridged by rapalog [1]",depletion of the GFP target (GFP fluorescence by flow cytometry) in HEK293 cells after 24 h with 10 to 50 uM and higher GA3-AM; dimerisation bridged by gibberellin GA3 [2],Substance
90%,–,FKBP-GFP-tail target protein
–,80%,GID1-GFP-tail target protein
